Legend:
[1] = biological target: T1, Ara h 2 peptide PYSPSQDPYSPSPYD; experiment: Luminex peptide array
T1 construct: peptide of the Luminex peptide array
T1 peptide: PYSPSQDPYSPSPYD
Source text: (§1) Peptide microarray. The inventor used peptide arrays to help determine the approximate locations of the antigenic sites targeted by his human IgE mAbs. In collaboration with Dr. Hugh Sampson at Mount Sinai he tested Ara h 2-specific IgE mAbs using a Luminex peptide array technology (Shreffler et al., 2004). […] Several of the Ara h 2 site CR-A-specific IgE mAbs, however, bound strongly to peptide […] at the C-terminus of the allergen protein. Ara h 2 site SP-B-specific antibody 38B7, which competes with all Ara h 2 site CR-B antibodies, bound to two peptides […] and […]. […] In that paper the authors used the fusion protein to define an immunodominant population of IgE antibodies in the sera of peanut allergic subjects, which is the population the inventor defines here as site CR-B, the immunodominant antigenic site of Ara h 2. This region has also been described previously as being an immunodominant target of the Ara h 2 and Ara h 6 IgE antibody response seen in human sera (Chen et al., 2016). These peptides make up the disordered loop between helices 2 and 3 of Ara h 2, the region that differs between Ara h 2.01 and Ara h 2.02 isoforms, not present in the crystal structure due to its high degree of flexibility. […]

[2] = biological target: T2, Ara h 2 peptide DSYERDPYSPSQDPY; experiment: Luminex peptide array
T2 construct: peptide of the Luminex peptide array
T2 peptide: DSYERDPYSPSQDPY
Source text: as §1

peanut allergen Ara h 9 = biological target: T3, peanut allergen Ara h 9 (peanut (Arachis hypogaea)); experiment: ImmunoCAP, hybridoma supernatant
T3 construct: ImmunoCAP component F427; also called F427
Experimental: (§2) Verification and validation of IgE mAbs peanut allergen specificity. Following the unbiased generation of IgE secreting human hybridomas from peanut allergic subject PBMCs, peanut protein binding and peanut allergen protein specificity was determined. Hybridoma culture supernatant was initially used for this validation. […] Using the available ImmunoCAP components (purified allergen proteins: Ara h 1, F422; Ara h 2, F423; Ara h 3, F424; Ara h 8 F352; Ara h 9 F427), the exact allergen specificity was determined for those which bound Ara h 1, 2, and 3.
(§3) Hybridoma cell culture supernatant was used for initial identification of allergen specificity using ImmunoCAP analysis. Peanut reactivity was first determined using peanut ImmunoCAP. Component analysis identified IgE antibodies specific for Ara h 1, 2, and 3. All antibodies not identified in this table were determined to bind Ara h 6.

peanut allergen Ara h 8 = biological target: T4, peanut allergen Ara h 8 (peanut (Arachis hypogaea)); experiment: ImmunoCAP, hybridoma supernatant
T4 construct: ImmunoCAP component F352; also called F352
Experimental: as §2, §3

peanut allergen Ara h 3 = biological target: T5, peanut allergen Ara h 3 (peanut (Arachis hypogaea)); experiment: ImmunoCAP, hybridoma supernatant
T5 construct: also called F424
Experimental: as §2, §3

binding result [1]: binds
binding result [2]: binds
ImmunoCAP kUA/L (peanut allergen Ara h 9): 0.11 kUA/L
ImmunoCAP kUA/L (peanut allergen Ara h 8): 0.15 kUA/L
ImmunoCAP kUA/L (peanut allergen Ara h 3): 0.23 kUA/L
B1: human IgE mAb 38B7 (antibody, V domains shown)
VH: QVQLVESGGGVVQPGRSLRLSCVGSGFTFRRDAKYWVRQAPGKGLEWVAAISHDGGEEDYAESVKGRFTISRDNSRETVYLEMNSLRPEDTAVYYCATTRSGWYFDYWGQGALVTVSS
VL: EIVLTQSPATLSLSPGARATLSCRASQSVDTYLAWYQQRRGQSPRLLIYDASKRATGIPARFSGSGSGTDFTLTISSLEPEDFAVYYCQQRNNWRTWTFGQGTKVEIN
notes: human IgE from hybridoma
